The source of these data is publication PMC7500927.

Series [1] deals with T1, TrxA-His6-TbRAP1(639-761) (Trypanosoma brucei, UniProt C1JEX5 639-761).
T1 sequence: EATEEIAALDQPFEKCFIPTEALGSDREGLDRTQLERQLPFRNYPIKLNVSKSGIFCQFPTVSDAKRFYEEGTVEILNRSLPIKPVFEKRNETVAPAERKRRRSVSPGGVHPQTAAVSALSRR
Put plainly: EMSA.

Series [2] deals with T2, TrxA-His6-TbRAP1(639-761) 5A (Trypanosoma brucei, UniProt C1JEX5 639-761, R737A;K738A;R739A;R740A;R741A).
T2 sequence: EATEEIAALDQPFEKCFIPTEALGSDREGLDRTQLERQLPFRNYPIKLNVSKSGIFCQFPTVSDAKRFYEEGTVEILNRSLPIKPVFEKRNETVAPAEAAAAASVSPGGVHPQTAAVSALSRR
Put plainly: EMSA. For orientation: Mobility shift assays separate free from complexed probe on a gel.

Series [3] has as its target T3, TrxA-His6-TbRAP1(639-733) (Trypanosoma brucei, UniProt C1JEX5 639-733).
T3 sequence: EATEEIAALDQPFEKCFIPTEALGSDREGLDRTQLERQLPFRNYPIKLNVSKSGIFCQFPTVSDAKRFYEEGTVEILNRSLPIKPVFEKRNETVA
Put plainly: EMSA.

Series [4] deals with T1, TrxA-His6-TbRAP1(639-761). The series can be described thus: EMSA. The source holds these as a separate data set.
For series [5], the target named is T1, TrxA-His6-TbRAP1(639-761). The series can be described thus: competition.
Series [6] has as its target T4, TbRAP1(639-761) 5A, tag removed (Trypanosoma brucei, UniProt C1JEX5 639-761, R737A;K738A;R739A;R740A;R741A).
T4 sequence: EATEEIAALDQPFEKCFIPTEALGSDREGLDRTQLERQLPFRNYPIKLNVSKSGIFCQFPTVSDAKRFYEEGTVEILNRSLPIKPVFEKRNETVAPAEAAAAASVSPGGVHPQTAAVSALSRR
Put plainly: NMR HSQC.

For series [7], the target named is T5, TbRAP1(639-761), tag removed (Trypanosoma brucei, UniProt C1JEX5 639-761).
T5 sequence: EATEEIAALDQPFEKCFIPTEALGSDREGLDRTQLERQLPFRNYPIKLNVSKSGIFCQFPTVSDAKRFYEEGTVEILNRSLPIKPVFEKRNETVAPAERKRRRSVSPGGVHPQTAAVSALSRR
The series can be described thus: NMR HSQC.

Series [8] deals with T6, TrxA-His6-TbRAP1(639-761) 2SA (Trypanosoma brucei, UniProt C1JEX5 639-761, S742A;S744A).
T6 sequence: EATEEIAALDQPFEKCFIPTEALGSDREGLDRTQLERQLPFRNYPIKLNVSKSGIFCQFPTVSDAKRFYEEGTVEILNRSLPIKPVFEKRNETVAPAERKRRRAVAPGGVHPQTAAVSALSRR
Put plainly: EMSA.

B1: dsDNA 100 bp random (dsDNA)
DNA 1: GAATTCCAAAGAAGCCATGCGCCGTGCAGAGCAGGAAAAAGCCACACGGGAACTCCTCCTGCAACAAACTTCAGCACCACATGCATCATCAGTTACATCCGGGATCC
DNA 2: GGATCCCGGATGTAACTGATGATGCATGTGGTGCTGAAGTTTGTTGCAGGAGGAGTTCCCGTGTGGCTTTTTCCTGCTCTGCACGGCGCATGGCTTCTTTGGAATTC
With B1, the Kd in series [1] worked out at 21.5 µM. The binding result in series [2] and in series [3] was “no binding” throughout.

B2: dsDNA 150 bp random (dsDNA)
DNA 1: GTACCGGGCCCCCCCTCGAGGTCGACGGTATCGATAAGCTTGATATCGAATTCAATTCCAAAGAAGCCATGCGCCGTGCAGAGCAGGAAAAAGCCACACGGGAACTCCTCCTGCAACAAACTTCAGCACCACATGCATCATCAGTTACATCCGGGATC
DNA 2: GATCCCGGATGTAACTGATGATGCATGTGGTGCTGAAGTTTGTTGCAGGAGGAGTTCCCGTGTGGCTTTTTCCTGCTCTGCACGGCGCATGGCTTCTTTGGAATTGAATTCGATATCAAGCTTATCGATACCGTCGACCTCGAGGGGGGGCCCGGTAC
As to B2, the binding result in series [4] is on record as “binds”.

B3: dsDNA 200 bp random (dsDNA)
DNA 1: CGCGCGTAATACGACTCACTATAGGGCGAATTGGGTACCGGGCCCCCCCTCGAGGTCGACGGTATCGATAAGCTTGATATCGAATTCCAAAGAAGCCATGCGCCGTGCAGAGCAGGAAAAAGCCACACGGGAACTCCTCCTGCAACAAACTTCAGCACCACATGCATCATCAGTTACATCCGGATCCACTAGTTCTAG
DNA 2: CTAGAACTAGTGGATCCGGATGTAACTGATGATGCATGTGGTGCTGAAGTTTGTTGCAGGAGGAGTTCCCGTGTGGCTTTTTCCTGCTCTGCACGGCGCATGGCTTCTTTGGAATTCGATATCAAGCTTATCGATACCGTCGACCTCGAGGGGGGGCCCGGTACCCAATTCGCCCTATAGTGAGTCGTATTACGCGCG
As for B3, in series [5], the binding result is given as “binds”.

B4: random dsDNA 18 bp (NMR) (dsDNA)
DNA 1: TGTTGAGGAGGTGGTGAT
DNA 2: ATCACCACCTCCTCAACA
B4: the binding result was “no binding” in series [6] and “binds” in series [7].

B5: dsDNA 80 bp random (dsDNA)
DNA 1: CGTGCAGAGCAGGAAAAAGCCACACGGGAACTCCTCCTGCAACAAACTTCAGCACCACATGCATCATCAGTTACATCCGG
DNA 2: CCGGATGTAACTGATGATGCATGTGGTGCTGAAGTTTGTTGCAGGAGGAGTTCCCGTGTGGCTTTTTCCTGCTCTGCACG
For B5, in series [1], the binding result is “binds”.

B6: ssDNA 100 nt random (ssDNA)
DNA: AATTCCAAAGAAGCCATGCGCCGTGCAGAGCAGGAAAAAGCCACACGGGAACTCCTCCTGCAACAAACTTCAGCACCACATGCATCATCAGTTACATCCG
As for B6, the Kd in series [1] is 0.31 µM. In addition, the binding result is listed as “no binding” in series [2], “no binding” in series [3] and “binds” in series [8].

The Kd is the constant that tells how readily two partners part at equilibrium.
